Data reported in paper PMC11329664.

Biological target: Alexa Fluor 488-conjugated human CD40-CA-His12 (ectodomain of human CD40) (human)
Assay: scanning fluorescence correlation spectroscopy with brightness-transit statistics (sFCS BTS); CD40-AF488-His tethered through Ni-NTA-DGS to a BSA-blocked supported lipid bilayer, titrated to higher surface densities (100 and 175 molecules/µm^2); brightness and transit time compared with the monomeric control AF488-His; 24 °C

stoichiometry N: > 2
Substance: Alexa Fluor 488-conjugated human CD40-CA-His12 (ectodomain of human CD40) (domain or fragment)
